Target: Sp3 (UniProt Q02447 1-781)
Assay: EMSA; 5 mM MgCl2; 10 mM Tris pH 7.5, 50 mM KCl, 1 mM DTT, 75 ng/ul poly(dI-dC), 0.25 mg/ml BSA, 40 fmol probe, 1 ug protein, 20 min room temperature; Sp3 buffer plus 5% glycerol, 5 mM MgCl2, 0.025% NP-40; 6% PAGE in 0.5x TBE
Conditions: protein: commercial; label: 5'-biotin on both strands; blunt

Sp3, sequence (Q02447 whole entry): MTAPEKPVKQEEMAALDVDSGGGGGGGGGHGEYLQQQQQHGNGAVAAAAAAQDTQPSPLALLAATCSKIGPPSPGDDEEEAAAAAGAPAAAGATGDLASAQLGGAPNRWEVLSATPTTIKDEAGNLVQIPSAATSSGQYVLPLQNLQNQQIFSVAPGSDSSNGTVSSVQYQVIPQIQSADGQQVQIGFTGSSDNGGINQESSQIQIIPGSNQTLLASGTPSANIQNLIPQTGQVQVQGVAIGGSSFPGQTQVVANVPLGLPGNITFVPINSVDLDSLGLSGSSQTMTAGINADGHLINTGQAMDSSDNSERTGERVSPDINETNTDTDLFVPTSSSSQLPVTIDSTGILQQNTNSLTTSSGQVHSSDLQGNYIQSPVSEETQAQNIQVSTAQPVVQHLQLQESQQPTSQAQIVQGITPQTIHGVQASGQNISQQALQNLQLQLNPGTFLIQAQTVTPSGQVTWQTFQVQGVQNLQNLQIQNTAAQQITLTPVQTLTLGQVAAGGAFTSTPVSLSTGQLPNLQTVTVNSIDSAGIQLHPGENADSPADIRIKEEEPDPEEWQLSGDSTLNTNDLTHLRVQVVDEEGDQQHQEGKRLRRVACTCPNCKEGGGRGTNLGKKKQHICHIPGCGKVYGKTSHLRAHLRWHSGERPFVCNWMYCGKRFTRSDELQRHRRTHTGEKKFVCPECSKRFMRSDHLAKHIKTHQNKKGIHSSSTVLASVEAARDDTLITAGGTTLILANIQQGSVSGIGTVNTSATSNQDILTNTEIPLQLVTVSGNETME

B1: SP1.3 (dsDNA)
DNA 1: TCCTCCCTCGGCTCCTCCCCCAGGC
DNA 2: GCCTGGGGGAGGAGCCGAGGGAGGA
binding signal: 100 % of strongest band

B2: SP1.2 (dsDNA)
DNA 1: CTGATCGCCCCCACCCCCTTCCTTT
DNA 2: AAAGGAAGGGGGTGGGGGCGATCAG
binding signal: 99.3 % of strongest band

B3: SP1.4 (dsDNA)
DNA 1: CCCAGGCCCCGCCCTCTCCGCCTCG
DNA 2: CGAGGCGGAGAGGGCGGGGCCTGGG
binding signal: 83.4 % of strongest band

Source: paper PMC6290791, “microRNA-29b mediates fibrotic induction of human xylosyltransferase-I in human dermal fibroblasts via the Sp1 pathway”
